Experimental data from patent US20210214435A1 (MorphoSys, published 2021).
Blank lines part the entries; values can stand above or below the binder they belong to.

Columns and labels:
[1] = molecular target: T1, mouse GPVI extracellular domain fused at its C-terminus to human IgG1 Fc (GPVI-Fc) (mouse; human); assay: Competition ELISA (MSD): mouse GPVI-Fc preincubated with Fab, then on coated rat-tail collagen (competitor)
T1 construct: also called mGPVI; mouse GPVI-Fc
Protocol: (§1) 1 or 10 μg/ml of recombinant GPVI collagen substrate (crosslinked collagen-related peptide (CRP-XL (Anaspec, Inc.), rat-tail collagen (Enzo Life Sciences) or VitroCol (Advanced BioMatrix, Inc.) was coated on a MSD-plate over night at 4° C., washed with PBST, blocked for 1 h at RT with PBS supplemented with 0.05% Tween-20 and 3% skim milk powder, and subsequently washed again with PBST. Purified recombinant GPVI antigens (human, cynomolgus monkey or mouse GPVI as prepared in Example 1) diluted in PBS and varying concentrations of Fab (comprising a modified heavy chain constant region) diluted in PBS (final concentration range 200-0.3 μg/ml) were incubated in a polypropylene plate for 30 min at RT. Fab/GPVI-Fc mixture was added to coated collagen substrate for 1 h at RT. After washing with PBST, bound GPVI form different species was detected using an ECL-conjugated detection antibody directed against human Fc (Jackson Immuno Research) for 1 h at RT. MSD read buffer (Meso Scale Discovery) was added prior to readout in a Sector Imager6000 (Meso Scale Discovery).

[2] = molecular target: T1, mouse GPVI extracellular domain fused …; assay: Competition ELISA (MSD): mouse GPVI-Fc preincubated with Fab, then on coated CRP-XL (competitor)
Protocol: as §1

[3] = molecular target: T2, human GPVI-1A extracellular domain fused at its C-terminus to human IgG1 Fc (GPVI-Fc) (human); assay: ELISA, coated GPVI-Fc, Fab titrated
T2 construct: also called hGPVI-1a; hGPVI
Protocol: (§2) 0.5-2 nM of recombinant GPVI-Fc-fusion proteins (as described in Example 1) were coated overnight on Maxisorp microtiter plates at 4° C. […] Following washing with PBST, Fabs (comprising a modified heavy chain constant region) serially diluted to concentrations in the range of 600 nM to 1 pM in PBST with 5% skim milk powder (MPBST) were added for 1 h at RT. Plates were washed with PBST. Bound Fab was detected using an alkaline phosphatase-conjugated detection antibody (Jackson Immuno Research) diluted in MPBST and directed against human F(ab′)2 fragment. After washing with TBS supplemented with 0.05% Tween-20 (TBST), AttoPhos substrate (Roche) diluted in ddH2O was added and fluorescence intensity measured at a Tecan Infinite 200Pro reader. EC50 values were calculated using Prism 5 software (GraphPad).

[4] = molecular target: T3, cynomolgus monkey GPVI extracellular domain fused at its C-terminus to human IgG1 Fc (GPVI-Fc) (cynomolgus monkey; human); assay: ELISA, coated GPVI-Fc, Fab titrated
T3 construct: also called cyGPVI-2; cyGPVI
Protocol: as §2

[5] = molecular target: T4, rat GPVI extracellular domain fused at its C-terminus to human IgG1 Fc (GPVI-Fc) (rat; human); assay: ELISA, coated GPVI-Fc, Fab titrated
T4 construct: also called rGPVI
Protocol: as §2

[6] = molecular target: T5, human GPVI-1B extracellular domain fused at its C-terminus to human IgG1 Fc (GPVI-Fc) (human); assay: ELISA, coated GPVI-Fc, Fab titrated
T5 construct: Low frequency haplotype 'b'; also called hGPVI-lb; hGPVI-1b
Protocol: as §2

[7] = molecular target: T6, human GPVI-2A extracellular domain fused at its C-terminus to human IgG1 Fc (GPVI-Fc) (human); assay: ELISA, coated GPVI-Fc, Fab titrated
T6 construct: Isoform 2, haplotype 'a'; also called hGPVI-2a
Protocol: as §2

[8] = molecular target: T1, mouse GPVI extracellular domain fused …; assay: Competition ELISA (MSD): mouse GPVI-Fc preincubated with Fab, then on coated VitroCol (competitor)
Protocol: as §1

[9] = molecular target: T7, human GPVI (full-length) expressed on stably transfected rat basophilic RBL-2H3 cells (human, UniProt Q9HCN6 21-339); assay: cell-based or functional assay
T7 sequence (looked up): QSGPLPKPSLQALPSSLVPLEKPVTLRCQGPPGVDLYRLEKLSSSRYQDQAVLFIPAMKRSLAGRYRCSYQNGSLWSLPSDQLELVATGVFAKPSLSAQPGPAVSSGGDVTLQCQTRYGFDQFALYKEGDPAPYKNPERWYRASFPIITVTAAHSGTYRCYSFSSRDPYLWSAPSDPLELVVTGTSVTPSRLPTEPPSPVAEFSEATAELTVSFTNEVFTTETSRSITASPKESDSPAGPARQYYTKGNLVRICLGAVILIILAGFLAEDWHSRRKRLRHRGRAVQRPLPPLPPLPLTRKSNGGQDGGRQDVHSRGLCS

[10] = molecular target: T3, cynomolgus monkey GPVI extracellular …; assay: Competition ELISA (MSD): cynomolgus GPVI-Fc preincubated with Fab, then on coated VitroCol (competitor)
Protocol: as §1

[11] = molecular target: T3, cynomolgus monkey GPVI extracellular …; assay: Competition ELISA (MSD): cynomolgus GPVI-Fc preincubated with Fab, then on coated CRP-XL (competitor)
Protocol: as §1

[12] = molecular target: T1, mouse GPVI extracellular domain fused …; assay: ELISA, coated GPVI-Fc, Fab titrated
Protocol: as §2

IC50 [1]: 17.2 nM
Max. inhibition at 200 nM Fab [%] [1]: 89%
IC50 [2]: 26.4 nM
Max. inhibition at 200 nM Fab [%] [2]: 77%
EC50 [3]: 0.46 nM
EC50 [4]: 0.53 nM
binding result [5]: binds
EC50 [6]: 0.66 nM
EC50 [7]: 0.93 nM
IC50 [8]: 9.1 nM
Max. inhibition at 200 nM Fab [%] [8]: 96%
Cell adhesion assay IC50 [nM], coated VitroCol [9]: 0.58 nM
Cell adhesion assay Max. inhibition at 200 nM Fab [%], coated VitroCol [9]: 55%
IC50 [10]: 9.7 nM
Max. inhibition at 200 nM Fab [%] [10]: 84%
IC50 [11]: 11.5 nM
Max. inhibition at 200 nM Fab [%] [11]: 59%
B1: Fab #1 comprising a modified heavy chain constant region (Fab, V domains shown)
VH: QVQLVQSGAEVKKPGASVKVSCKASGYTFTSHYMHWVRQAPGQGLEWMGLIEPSEGETEYAQRFQGRVTMTRDTSTSTVYMELSSLRSEDTAVYYCARDSSRSYPLGFDIWGQGTLVTVSS
VL: QSVLTQPPSVSAAPGQKVTISCSGSSSNIGNNYVSWYQQLPGTAPKLLIYDNNKRPSGIPDRFSGSKSGTSATLGITGLQTEDEADYYCAAWDFRSSRWVFGGGTKLTVLG
notes: Human Fab from the Ylanthia library; produced in HKB11 cells; also called Fab #1 mod; HC

IC50 [1]: 5.7 nM
Max. inhibition at 200 nM Fab [%] [1]: 99%
IC50 [2]: 12 nM
Max. inhibition at 200 nM Fab [%] [2]: 99%
EC50 [3]: 0.41 nM
EC50 [4]: 0.42 nM
EC50 [12]: 6.55 nM
EC50 [5]: 53.1 nM
EC50 [6]: 0.45 nM
EC50 [7]: 0.65 nM
IC50 [8]: 4.3 nM
Max. inhibition at 200 nM Fab [%] [8]: 99%
Cell adhesion assay IC50 [nM], coated CRP-XL [9]: 1.59 nM
Cell adhesion assay IC50 [nM], coated VitroCol [9]: 0.89 nM
Cell adhesion assay Max. inhibition at 200 nM Fab [%], coated CRP-XL [9]: 100%
Cell adhesion assay Max. inhibition at 200 nM Fab [%], coated VitroCol [9]: 93%
IC50 [10]: 4.3 nM
Max. inhibition at 200 nM Fab [%] [10]: 100%
IC50 [11]: 7.9 nM
Max. inhibition at 200 nM Fab [%] [11]: 100%
B2: Fab #2 comprising a modified heavy chain constant region (Fab, V domains shown)
VH: QVQLVESGGGLVKPGGSLRLSCAASGFSFSDHYMSWIRQAPGKGLEWVSSVGSEGKFIDYAASVKGRFTISRDNAKNSLYLQMNSLRAEDTAVYYCARHYREFRWHYYYFDYWGQGTLVTVSS
VL: QSVLTQPPSVSGAPGQRVTISCTGSSSNIGAGYDVHWYQQLPGTAPKLLIYGNSNRPSGVPDRFSGSKSGTSASLAITGLQAEDEADYYCQSHDLGAHVWVFGGGTKLTVLG
notes: Human Fab from the Ylanthia library; produced in HKB11 cells; also called Fab #2 mod; HC

IC50 [1]: 5.3 nM
Max. inhibition at 200 nM Fab [%] [1]: 99%
IC50 [2]: 8.1 nM
Max. inhibition at 200 nM Fab [%] [2]: 100%
EC50 [3]: 0.35 nM
EC50 [4]: 0.37 nM
EC50 [12]: 1.36 nM
EC50 [5]: 9.65 nM
EC50 [6]: 0.39 nM
EC50 [7]: 0.48 nM
IC50 [8]: 3.3 nM
Max. inhibition at 200 nM Fab [%] [8]: 100%
Cell adhesion assay IC50 [nM], coated CRP-XL [9]: 1.81 nM
Cell adhesion assay IC50 [nM], coated VitroCol [9]: 0.84 nM
Cell adhesion assay Max. inhibition at 200 nM Fab [%], coated CRP-XL [9]: 100%
Cell adhesion assay Max. inhibition at 200 nM Fab [%], coated VitroCol [9]: 91%
IC50 [10]: 4.7 nM
Max. inhibition at 200 nM Fab [%] [10]: 100%
IC50 [11]: 9.1 nM
Max. inhibition at 200 nM Fab [%] [11]: 100%
B3: Fab #3 comprising a modified heavy chain constant region (Fab, V domains shown)
VH: QVQLVESGGGLVKPGGSLRLSCAASGFSFGDYYVSWIRQAPGKGLEWVSAIGGSGSAVQYAESVKGRFTISRDNAKNSLYLQMNSLRAEDTAVYYCARHYREFRWHYYYFDYWGQGTLVTVSS
VL: B2 VL
notes: Human Fab from the Ylanthia library; produced in HKB11 cells; also called Fab #3 mod; HC

Max. inhibition at 200 nM Fab [%] [1]: 87%
IC50 [2]: 10.6 nM
Max. inhibition at 200 nM Fab [%] [2]: 67%
EC50 [3]: 0.41 nM
EC50 [4]: 0.5 nM
EC50 [12]: 1 nM
EC50 [5]: 9.32 nM
EC50 [6]: 0.48 nM
EC50 [7]: 0.74 nM
IC50 [8]: 6.7 nM
Max. inhibition at 200 nM Fab [%] [8]: 94%
Cell adhesion assay IC50 [nM], coated VitroCol [9]: 0.57 nM
Cell adhesion assay Max. inhibition at 200 nM Fab [%], coated VitroCol [9]: 59%
IC50 [10]: 8.1 nM
Max. inhibition at 200 nM Fab [%] [10]: 91%
IC50 [11]: 11.3 nM
Max. inhibition at 200 nM Fab [%] [11]: 51%
B4: Fab #4 comprising a modified heavy chain constant region (Fab, V domains shown)
VH: QVQLVQSGAEVKKPGASVKVSCKASGGAFTSSYMHWVRQAPGQGLEWMGIIEPTGASTLYAQRFQGRVTMTRDTSTSTVYMELSSLRSEDTAVYYCARTGIALPLGFDLWGQGTLVTVSS
VL: QSVLTQPPSVSAAPGQKVTISCSGSSSNIGNNYVSWYQQLPGTAPKLLIYDNNKRPSGIPDRFSGSKSGTSATLGITGLQTEDEADYYCAAWSTRFRWVFGGGTKLTVLG
notes: Human Fab from the Ylanthia library; produced in HKB11 cells; also called Fab #4 mod; HC

EC50 [3]: 0.93 nM
EC50 [4]: 0.58 nM
EC50 [6]: 1 nM
EC50 [7]: 1.43 nM
Cell adhesion assay IC50 [nM], coated CRP-XL [9]: 2.69 nM
Cell adhesion assay IC50 [nM], coated VitroCol [9]: 1.17 nM
Cell adhesion assay Max. inhibition at 200 nM Fab [%], coated CRP-XL [9]: 100%
Cell adhesion assay Max. inhibition at 200 nM Fab [%], coated VitroCol [9]: 92%
IC50 [10]: 5.5 nM
Max. inhibition at 200 nM Fab [%] [10]: 100%
IC50 [11]: 9.5 nM
Max. inhibition at 200 nM Fab [%] [11]: 100%
B5: Reference Control Antibody RefFab #1 (humanized GPVI antibody of WO2011073954A2, SANOFI) (Fab, V domains shown)
VH: EVQLLESGPGLVAPSGSLSITCTVSGFSLTGYGVNWVRQPPGKGLEWLGMIWGDGSTDYQSTLKSRLSISKDNSKSQVFLKMNSLRTDDTARYYCARDLPMDYWGLGTSVTVSS
VL: DIQMTQSPSSLSASVGGRVTITCKASQDINKYIAWYQHKPGKGPSLLIHYTSTLQPGVPSRFSGSGSGRDYSFSISNLQPEDIATYYCLQYANLLTFGGGTKLEIKR
notes: Cloned into mammalian Fab expression vectors; a glycine-serine linker (G4S)2 was added to the C-terminus of the Fab heavy chain
